Percent of bulk H2A.Z in the H2A-to-H2A.Z cross-linked adduct (WT cells) and percent of bulk H2A.Z in the H2A.Z-to-H2A.Z cross-linked adduct (WT cells) data for 2 substances are collected here from article doi:10.1101/2023.12.06.570360.

For the experiment, the target named is Htz1(T46C)-2xFLAG (yeast histone H2A.Z with a cysteine probe) (S. cerevisiae). Kind of experiment: cross-linking.

Substance “Hta1(N39C) (yeast histone H2A with a cysteine probe) (natural protein)” registered a percent of bulk H2A.Z in the H2A-to-H2A.Z cross-linked adduct (WT cells) of 57%. In turn, “Htz1(T46C)-2xFLAG (yeast histone H2A.Z with a cysteine probe) (natural protein)” gave a percent of bulk H2A.Z in the H2A.Z-to-H2A.Z cross-linked adduct (WT cells) of 12%.
